Results on 1 molecule are retold here after patent US10293026B2, “Agent for preventing or treating demyelinating disease” (Osaka University, priority 2014, dated 2019).

Experiment [1] concerns oligodendrocyte precursor cells. Kind of experiment: BrdU uptake by oligodendrocyte precursor cells with recombinant FGFs (Example 3). The conditions noted are these: FGF at 10, 30 or 100 ng/ml, vs saline control; FIG. 3. It counts as cell-based, C57BL/6j mice. Here is the method:
Recombinant FGF15 (Abcam), FGF21 (R&D), or FGF23 (R&D) was diluted in saline solution immediately before use to prepare an each FGF-containing solution. Oligodendrocyte precursor cells were harvested from C57BL/6j mice (postnatal day 1-old) brains, as in Example 1.
Initially, the oligodendrocyte precursor cells were seeded in a poly-L-lysinde (Sigma)-coated plastic tissue culture dish, and cultured in the following medium for 1 day (37° C., 5% CO2). The medium used was DMEM containing 4 mM L-gludamine (Sigma), 1 mM sodium pyruvate (Sigma), 0.1% bovine serum albumin (Sigma), 50 μg/ml apo-Transferrin (Sigma), 5 μg/ml insulin (Sigma), 30 nM sodium selenite (Sigma), 10 nM biotin (Sigma), 10 nM hydrocortisone (Sigma), 10 ng/ml Platelet-Derived Growth Factor-AA (Peprotech), and 10 ng/ml basic fibroblast growth factor (Peprotech). Thereafter, each type of FGF-containing solution was added to the culture medium of oligodendrocyte precursor cells such that the concentration of each type of FGF was 10 ng/ml, 30 ng/ml, or 100 ng/ml, and the cells were cultured at 37° C. for 24 hours. BrdU was subsequently added and cultured at 37° C. for 24 hours, and then the cells were collected; the BrdU uptake was then detected using the cell proliferation ELISA, BrdU colorimetric kit (Roche). As a control, an equivalent amount of saline solution was used instead of the FGF21-containing solution, and the BrdU uptake was measured under the same conditions as those described above. This experiment studied three cases for each group.

For experiment [2], the system named is myelin sheath in demyelination model mice. Description: MBP positive regions in spinal cord of demyelination model mice (Example 6). It counts as in vivo, C57BL/6j mice. The conditions noted are these: subcutaneous 500 ng/kg per day for 2 weeks from 7 days after lysophosphatidylcholine, one mouse per group, FIG. 6. How it is done: Demyelination model mice were created as in Example 5 above. An FGF21-containing solution prepared by diluting recombinant FGF21 (R&D) in saline solution was subcutaneously administered for 2 weeks at a dose of 500 ng/kg body weight of FGF21 per day, to the demyelination model mice after 7 days from the administration of lysophosphatidylcholine. After 2 weeks, the demyelination model mice were anesthetized and transcardially perfused with saline solution, and spinal cord tissue was harvested. Sections were prepared from the harvested spinal cord tissue as in Example 5 above and then immunostained using an anti-MBP antibody, and MBP positive regions in the sections were counted. As a control, a saline solution containing 0.5% BSA was used, and MBP positive regions were counted under the same conditions as those described above. This experiment conducted the study using one mouse for each group.

B1: FGF21: Recombinant fibroblast growth factor 21 (R&D); the claimed active ingredient promoting oligodendrocyte precursor cell proliferation (protein, listed as Homo sapiens)
chain: MDSDETGFEHSGLWVSVLAGLLLGACQAHPIPDSSPLLQFGGQVRQRYLYTDDAQQTEAHLEIREDGTVGGAADQSPESLLQLKALKPGVIQILGVKTSRFLCQRPDGALYGSLHFDPEACSFRELLLEDGYNVYQSEAHGLPLHLPGNKSPHRDPAPRGPARFLPLPGLPPALPEPPGILAPQPPDVGSSDPLSMVGPSQGRSPSYAS
B1: the “BrdU uptake by the oligodendrocyte precursor cells” value in experiment [1] is given as “markedly increased”. For the same molecule, in experiment [2], the MBP positive regions entry is recorded as “increased”.
